According to publication PMC7215387, “Comparison of Target Recognition by TRAF1 and TRAF2” (International Journal of Molecular Sciences, 2020):
Residues, ends and D or L forms follow the SMILES beside them.

Key:
[1] = molecular target: T1, TRAF1 F347L mutant (Homo sapiens, UniProt Q13077, F347L); experiment: Isothermal titration calorimetry (ITC), TRAF1 F347L mutant; format: binding; conditions: Supplementary Figure S2a,b
T1 construct: the TRAF1 TRAF domain (amino acid residues 220-416); 6xHis (C); made in house; host or cells: E. coli BL21 (DE3)
T1 sequence (Q13077 220-416 F347L): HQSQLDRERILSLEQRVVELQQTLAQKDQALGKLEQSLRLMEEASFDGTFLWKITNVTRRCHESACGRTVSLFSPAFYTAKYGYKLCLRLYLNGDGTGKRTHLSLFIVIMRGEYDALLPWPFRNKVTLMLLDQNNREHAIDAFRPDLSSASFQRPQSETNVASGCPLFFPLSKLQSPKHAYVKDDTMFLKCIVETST
Source text: To understand how TRAF1 binds with higher affinity to TANK and caspase-2, we compared the amino acid sequence of the receptor-binding hot spots on TRAF1 and TRAF2. There are three well-known hot spots in TRAFs (Figure 5a). Based on the sequence comparison, two amino acid residues in TRAF1, F347 of hot spot1 and A369 of hot spot2, were not conserved in TRAF2 (Figure 5b). As the two non-conserved amino acid residues of TRAF1 may generate different conditions for receptor-binding regions and affect its affinity for various receptors, we compared the receptor-binding regions between TRAF1 and TRAF2 by comparing the TRAF1:TANK structure with the TRAF2:latent membrane protein 1 (LMP1) structure (Figure 5c). […] S454 of TRAF2 was not critical for the formation of an H-bond cluster, unlike residues S453 and S455, which were closely located to the Q at the P0 position of the receptor peptide. […] However, F347 on TRAF1 (corresponding to L432 on TRAF2) was critical for determining receptor preference and binding affinity by contributing to the formation of a stable hydrophobic pocket in the hot spot1 motif.
A NanoITC (TA Instruments) was used for isothermal titration calorimetry experiments. […] Binding isotherms were analyzed by using the software provided by TA Instruments. […]

[2] = molecular target: T2, TRAF1 TRAF domain (amino acid residues 220-416) (UniProt Q13077 220-416); experiment: ITC; NanoITC; peptide (1 mM) injected into the cell with TRAF domain (~20 uM); PBS; 15 °C; 25 injections; single site model; conditions: both partners purified
T2 construct: TRAF1 (TNF receptor-associated factor 1), TRAF domain, residues 220-416; it speaks of 'trimeric TRAF1'; source: E. coli BL21 (DE3), purified (Ni-NTA, SEC); not shown: His6, C-terminal, kept
T2 sequence (looked up): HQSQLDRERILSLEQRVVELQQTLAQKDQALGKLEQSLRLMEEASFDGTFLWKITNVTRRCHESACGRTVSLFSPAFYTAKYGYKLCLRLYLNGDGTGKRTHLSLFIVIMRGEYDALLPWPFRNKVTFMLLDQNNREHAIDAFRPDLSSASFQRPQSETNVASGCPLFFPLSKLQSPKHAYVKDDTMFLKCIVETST

[3] = molecular target: T3, TRAF2 TRAF domain (amino acid residues 305-501) (UniProt Q12933 305-501); experiment: as above; conditions: both partners purified
T3 construct: TRAF2 (TNF receptor-associated factor 2), TRAF domain, residues 305-501; it speaks of 'the three subunits of TRAF2'; source: E. coli BL21 (DE3), purified (Ni-NTA, SEC); not shown: His6, C-terminal, kept
T3 sequence (looked up): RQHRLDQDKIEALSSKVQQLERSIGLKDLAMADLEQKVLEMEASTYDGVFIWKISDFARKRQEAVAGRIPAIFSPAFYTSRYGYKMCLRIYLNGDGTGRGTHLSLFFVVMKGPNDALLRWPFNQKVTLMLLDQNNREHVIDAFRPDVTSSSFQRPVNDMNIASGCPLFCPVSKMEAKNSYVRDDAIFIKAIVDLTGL

[4] = molecular target: TRAF1 F347L mutant (UniProt Q13077); experiment: as above
[5] = molecular target: T2, TRAF1 TRAF domain (amino acid residues …); experiment: SPR; Biacore T200; His-tagged TRAF domain held on Ni-NTA chip; TRADD-N 0.39-3.125 uM flowed over in PBS, 30 uL/min; conditions: both partners purified
[6] = molecular target: T3, TRAF2 TRAF domain (amino acid residues …); experiment: as above; conditions: both partners purified
[7] = molecular target: TRAF2 S454A mutant (UniProt Q12933); experiment: ITC; TRADD with TRAF2 S454A mutant; who was titrated and conditions not told for this experiment

Molecule: CC[C@H](C)[C@H](NC(=O)[C@@H]1CCCN1C(=O)[C@@H](NC(=O)[C@@H](N)CO)C(C)C)C(=O)N[C@@H](CCC(N)=O)C(=O)N[C@@H](CS)C(=O)N[C@H](C(=O)N[C@@H](CC(=O)O)C(=O)N[C@@H](CCCCN)C(=O)N[C@H](C(=O)O)[C@@H](C)O)[C@@H](C)O [TANK] (H-SVPIQCTDKT-OH)
- Kd [1]: ~15 µM

Molecule: TAQEM (source: synthetic peptide (Peptron)) [caspase-2 peptide (TAQEM)]
- Kd [2]: 86.9 µM
- Kd [3]: 117 µM
- Kd [4]: 265 µM

B1: N-terminal domain of TRADD (TRADD-N, amino acid residues 1-163) (domain or fragment, UniProt Q15628 1-163, looked up)
chain: MAAGQNGHEEWVGSAYLFVESSLDKVVLSDAYAHPQQKVAVYRALQAALAESGGSPDVLQMLKIHRSDPQLIVQLRFCGRQPCGRFLRAYREGALRAALQRSLAAALAQHSVPLQLELRAGAERLDALLADEERCLSCILAQQPDRLRDEELAELEDALRNLK
notes: TRADD (tumor necrosis factor receptor type 1-associated death domain protein), N-terminal domain, residues 1-163; Cloned into pET24a by NdeI and XhoI; source: E. coli, purified (almost identical to the method for TRAF1 and TRAF2; SEC in 20 mM Tris-HCl pH 8.0, 150 mM NaCl)
- Kd [5]: 0.082 µM
- Kd [6]: 0.018 µM
- Kd [7]: 0.055 µM

Molecule: SVPIQCTDKT (source: synthetic peptide (Peptron)) [TANK peptide (SVPIQCTDKT)]
- Kd [2]: 2.5 µM
- Kd [3]: 11.7 µM
